The source of these data is PMC5677581 (2017).

For test [1], the target named is T1, MLL1 (Homo sapiens).
T1 chain: {fluorescein-βAla}-SDIMDFVLKNTP-NH2
In words: fluorescence polarization.

Test [2] deals with T2, MLL-WT (Homo sapiens).
T2 chain: {fluorescein-βAla}-DCGNILPSDIMDFVLKNTP-NH2
Description: fluorescence polarization.

Test [3] concerns the target T3, MLL-WT (Homo sapiens).
T3 chain: Ac-DCGNILPSDIMDFVLKNTP-NH2
Description: fluorescence polarization competition.

The target in test [4] is T4, MLL1 (Homo sapiens).
T4 chain: Ac-SDIMDFVLKNTP-NH2
Description: fluorescence polarization competition.

βAla = NCCC(=O)O A value given as a limit tells only on which side of the number the result lay.

B1: KIX domain of CBP KIX (protein)
chain: not shown
B1: the values for the Kd with MLL1 [1] and with MLL-WT [2] were greater than 100 µM and 1 µM, respectively. In addition, the inhibitory constant (Ki) with MLL-WT [3] is 3 µM; with MLL1 [4], greater than 1000 µM.
